Experimental data reported in publication PMC11672308.

Key:
[1] = IF staining, 293T; details: glycan lost; control: GLUT1-WT
[2] = IF co-staining, Ishikawa cells; details: glycan changed form; control: shC with GAL9 overexpression

Row | Protein | localisation_or_trafficking [1] | localisation_or_trafficking [2]
1 | GLUT1: N45D (protein) parent chain: MEPSSKKLTGRLMLAVGGAVLGSLQFGYNTGVINAPQKVIEEFYNQTWVHRYGESILPTTLTTLWSLSVAIFSVGGMIGSFSVGLFVNRFGRRNSMLMMNLLAFVSAVLMGFSKLGKSFEMLILGRFIIGVYCGLTTGFVPMYVGEVSPTALRGALGTLHQLGIVVGILIAQVFGLDSIMGNKDLWPLLLSIIFIPALLQCIVLPFCPESPRFLLINRNEENRAKSVLKKLRGTADVTHDLQEMKEESRQMMREKKVTILELFRSPAYRQPILIAVVLQLSQQLSGINAVFYYSTSIFEKAGVQQPVYATIGSGIVNTAFTVVSLFVVERAGRRTLHLIGLAGMAGCAILMTIALALLEQLPWMSYLSIVAIFGFVAFFEVGPGPIPWFIVAELFSQGPRPAAIAVAGFSNWTSNFIVGMCFQYVEQLCGPYVFIIFTVLLVLFFIFTYFKVPETKGRTFDEIASGFRQGGASQSDKTPEELFHPLGADSQV | decreases | –
2 | GLUT1: MGAT4A knockdown (protein) parent chain: MEPSSKKLTGRLMLAVGGAVLGSLQFGYNTGVINAPQKVIEEFYNQTWVHRYGESILPTTLTTLWSLSVAIFSVGGMIGSFSVGLFVNRFGRRNSMLMMNLLAFVSAVLMGFSKLGKSFEMLILGRFIIGVYCGLTTGFVPMYVGEVSPTALRGALGTLHQLGIVVGILIAQVFGLDSIMGNKDLWPLLLSIIFIPALLQCIVLPFCPESPRFLLINRNEENRAKSVLKKLRGTADVTHDLQEMKEESRQMMREKKVTILELFRSPAYRQPILIAVVLQLSQQLSGINAVFYYSTSIFEKAGVQQPVYATIGSGIVNTAFTVVSLFVVERAGRRTLHLIGLAGMAGCAILMTIALALLEQLPWMSYLSIVAIFGFVAFFEVGPGPIPWFIVAELFSQGPRPAAIAVAGFSNWTSNFIVGMCFQYVEQLCGPYVFIIFTVLLVLFFIFTYFKVPETKGRTFDEIASGFRQGGASQSDKTPEELFHPLGADSQV | – | decreases
